Measurements reported in patent publication US20050032696A1 (published 2005).

Target: the molecule itself
Assay: yeast two-hybrid mating assay, β-galactosidase reporter
Experimental: The dual reporter YM4271 yeast strains containing the USE-B1 and USE-B1b tandem repeats have been described previously (O'Mahoney et al. 1998). A two-hybrid mating assay was used to examine the transactivation and dimerisation functions of hMusTRD1α1. The yeast reporter strain Y190 (CLONTECH) was transformed with 1 μg of pAS2-1, pAS2-1:hMusTRD1α1, or pAS2-1:ΔhMusTRD1α1 using an alkali cation method (BIO 101, Inc., La Jolla, Calif.) and mated with Y187 cells carrying either pACTII, pGAD10:hMusTRD1α1 or, pACTII:ΔhMusTRD1α1. Transformants were selected on complete synthetic media plates lacking tryptophan and leucine (BIO 101). Diploid cells were grown to saturation and used to inoculate test cultures (OD₆₀₀=0.1) that were grown for a further 24 h at 30° C. Cells were harvested in 100 μl Breaking Buffer (100 mM Tris-HCl pH 8, 20% glycerol, 5 mM PMSF, 2 mM DTT) and lysed by vortexing with glass beads. Protein concentration was determined by the Bradford method (Bio-Rad Laboratories, Sydney, NSW). Protein extracts (20 μg) were assayed for β-galactosidase activity with a chemiluminescence detection kit (CLONTECH) and a Turner Designs 20/20 luminometer (Sunnyvale, Calif.).

B1: ΔhMusTRD1α1 (truncated human MusTRD1α1, amino acids 1-458) (other)
chain: MALLGKRCDVPTNGCGPDRWNSAFTRKDEIITSLVSALDSMCSALSKLNAEVACVAVHDESAFVVGTEKGRMFLNARKELQSDFLRFCRGPPWKDPEAEHPKKVQRGEGGGRSLPRSSLEHGSDVYLLRKMVEEVFDVLYSEALGRASVVPLPYERLLREPGLLAVQGLPEGLAFRRPAEYDPKALMAILEHSHRIRFKLKRPLEDGGRDSKALVELNGVSLIPKGSRDCGLHGQAPKVPPQDLPPTATSSSMASFLYSTALPNHAIRELKQEAPSCPLAPSDLGLSRPMPEPKATGAQDFSDCCGQKPTGPGGPLIQNVHASKRILFSIVHDKSEKWDAFIKETEDINTLRECVQILFNSRYAEALGLDHMVPVPYRKIACDPEAVEIVGIPDKIPFKRPCTYGVPKLKRILEERHSIHFIIKRMFDERIFTGNKFTKDTTKLEPASPPEDTSAEVS
notes: the fusion parts are not written into the chain; In the COS-7 Western blot it was expressed from pCI-neo; also called ΔMusTRD; hMusTRD1α1458aa
Q: Does B1 bind?
A: binds
